“Also recorded” adds a separate entry of the source.
What was measured:
[1] = test system: normal human epidermal keratinocytes; assay: Human epidermal keratinocytes stimulated with rLIGHT or rTL1A; type: cell-based; settings: for NF-κB activation (p-p65/RelA): keratinocytes, 25 ng/ml rTL1A or PBS
Method: FIG. 2A-FIG. 2C illustrate LTβR, HVEM, and DR3 are co-expressed or active in lung epithelial cells and fibroblasts, and keratinocytes and dermal fibroblasts. Cultured normal human bronchial epithelial cells and lung fibroblasts, and epidermal keratinocytes and dermal fibroblasts, were stained for expression of (FIG. 2A) LTβR and HVEM, (FIG. 2B) DR3 (isotype controls, gray), or (FIG. 2C) p-p65/RelA NF-κB after culture with 25 ng/ml rTL1A or PBS. Data representative of 2-4 experiments each.
Experimental Design: 1.1. LIGHT and TL1A co-operate to promote hyperplasia and inflammatory features in human keratinocytes: Firstly, the inventors test how signaling from LIGHT and TL1A directly regulate keratinocytes in vitro. Studies are performed with titrated doses of rLIGHT or rTL1A (0.1-100 ng/ml) vs. PBS, added to normal human epidermal keratinocytes from a minimum of 4 donors (obtained from Lonza) with kinetic analyses, as described previously (7, 8). LIGHT and TL1A have maximal activity in the range 20-100 ng/ml, similar to IL-13 or IL-17. […] The inventors control for specificity with siRNA knockdown of DR3, and then determine synergistic or additive activities, cross-titrating rLIGHT together with rTL1A and measure the extent of cell division and growth. The inventors also test if co-operation is at the level of the receptors (e.g. TL1A enhances expression of the LIGHT receptors).

[2] = test system: normal human bronchial epithelial cells (HBE); assay: Human bronchial epithelial cells (HBE) stimulated with rLIGHT or rTL1A; type: cell-based; settings: for periostin and TSLP expression (IF staining): 48 hrs
Text: HBE were stimulated with rLIGHT without (black bars) or with (gray bars) budesonide. Data are mean fold increase in mRNA over unstimulated cells after 3 days, measured by RT-PCR. Steroid sensitivity was arbitrarily set at >75% inhibition of the LIGHT-induced response, indicated to the left of the thick dotted lines.
HBE were stimulated with rLIGHT (left) or rTL1A (right) for 48 hrs and expression of periostin and TSLP examined by IF staining.

[3] = test system: human airway fibroblasts (HAF); assay: Human airway fibroblasts (HAF) stimulated with rLIGHT or rTL1A with or without TGF-β; type: cell-based
Text: FIG. 9A-FIG. 9D illustrate LIGHT and TL1A induce inflammatory and remodeling activity in human airway fibroblasts (HAF). HAF were stimulated with rLIGHT or rTL1A with or without TGF-β. (FIG. 9A) Proliferation (left, thymidine incorporation) or αSMA mRNA (right) induced by LIGHT, TGF-β or both. (FIG. 9B) mRNA for select genes induced by LIGHT. (FIG. 9C) Collagen 13 and periostin protein (IF stain; DAPI is used for […]) and mRNA induced by TL1A. (FIG. 9D) Proliferation (left, thymidine incorporation) and αSMA mRNA (right) induced by TL1A, TGF-β, or their combination. Data individual cultures or means of triplicates. mRNA either fold increase over unstimulated cells or relative to GAPDH.
The inventors compare rTL1A to rLIGHT, titrating each molecule (5-100 ng/ml, their optimal dose range, see (60, 69)). The inventors perform kinetic analyses over 3 days (e.g. 4, 24, 48, 72 hr) and compare data from 4-6 individual cell populations. The inventors initially gain data with normal HAF. […] The inventors additionally have shown that rTL1A can promote activities in HAF that might overlap with, but also be distinct from, LIGHT (FIGS. 9C and 9D).

lung fibroblasts = assay: Lung fibroblasts stimulated with rTL1A or rLIGHT; type: cell-based
airways of naïve mice [4] = assay: Injection of recombinant LIGHT / TL1A into the airways of naïve mice: airway remodeling; type: in vivo, mouse; settings: 10 μg intratracheally on two consecutive days, day 3
airways of naïve mice [5] = assay: as above; type: in vivo, mouse; settings: for airway remodeling (accumulation of collagen, trichrome): 10 μg intratracheally on two consecutive days, day 3, rLIGHT in DR3−/− mice, rTL1A in LIGHT−/− mice; for remodeling in mice lacking T cells and ILCs: RAG and RAGγc−/− mice; for fibrosis and remodeling after injection of the recombinant protein alone (collagen, αSMA / smooth muscle, airway hyperresponsiveness): naïve mice, into the airways (or skin)
Method: Naïve mice were injected with PBS or 10 μg rLIGHT or rTL1A intratracheally on two consecutive days. On day 3, accumulation of collagen was analyzed in the airways with trichrome staining. (FIG. 3A) rLIGHT was injected into DR3−/− mice, or rTL1A into LIGHT−/− mice. (FIG. 3B) rLIGHT was combined with rTL1A (5 μg each), and the extent of collagen deposition scored as well as the extent of inflammation scored. (FIG. 3C) rLIGHT and rTL1A were injected into RAG−/− mice.
The inventors furthered these observations by testing whether LIGHT and TL1A could induce fibrosis and remodeling independently of other inflammatory activity, and of each other, by injecting the recombinant proteins into naïve mice. […] Moreover, the effects of LIGHT and TL1A were not reliant on the other cytokine shown by injection of the proteins into the respective knockout animals.

dermal fibroblasts = assay: Dermal fibroblasts stimulated with rLIGHT; type: cell-based, human; settings: preliminary studies
Text: LIGHT and TL1A synergistic in driving proliferation and inflammatory activity in dermal fibroblasts: The inventors determine inflammatory events that are triggered by LIGHT and TL1A in normal human dermal fibroblasts, using cells from a minimum of 4 donors, with kinetic analyses. The inventors find that both LIGHT and TL1A induce fibroblast proliferation, and may have differential abilities to induce myofibroblast differentiation. […] The inventors also test a range of inflammatory factors relevant to AD or psoriasis that have receptors on fibroblasts (e.g. LIGHT, IL-13, TGF-β, FGF, TNF, IL-17) to determine if they can promote DR3.

skin of naïve mice = assay: Subcutaneous / intradermal injection of recombinant LIGHT into mice: skin fibrosis and inflammation; type: in vivo, mouse
Text: Masson trichrome (collagen), alpha Smooth muscle actin (αSMA) and TSLP immunofluorescent staining of skin sections. The data is representative of 6 to 10 mice per group.
Diseases such as atopic dermatitis (AD) and psoriasis present with extensive tissue remodeling, features shared with diseases of the lungs, such as severe asthma. The inventors have shown that a genetic deficiency in the TNF superfamily molecule LIGHT (TNFSF14, CD258), and blocking LIGHT binding to its receptors, reduced remodeling in the lungs in mouse models of severe asthma and systemic sclerosis (1, 2). […] LIGHT interacts with the TNF superfamily receptors HVEM (herpesvirus entry mediator, TNFRSF14) and LTβR (lymphotoxin beta receptor, TNFRSF3), and TL1A with DR3 (TNFRSF25) (4-6). The studies disclosed herein investigate the combination use of LIGHT and TL1A to control skin tissue remodeling relevant to AD and psoriasis, directly driving deregulated activity in keratinocytes and dermal fibroblasts. In support, the inventors have reported that LIGHT-deficient mice were protected from developing skin inflammation in models of scleroderma (7) and allergen-induced AD (8). […] The inventors have observed that the absence of TL1A/DR3 interactions also markedly limits disease in the same models of AD and psoriasis, and that keratinocytes and fibroblasts co-express DR3 together with the receptors for LIGHT. The inventors determine that LIGHT and TL1A are effectors of skin pathology through driving epidermal hyperplasia and remodeling molecules such as collagen, periostin, and alpha smooth muscle actin in keratinocytes and/or fibroblasts. Through production of other factors such as TSLP, IL-33, and chemokines in these structural cells, LIGHT and TL1A maintain disease through orchestrating immune inflammatory cells in the skin.

## rTL1A: recombinant TL1A (TNFSF15) protein [reference compound]
[1]
  NF-κB activation (p-p65/RelA): enhanced NF-κB activation
[1]; listed as TL1A
  NF-κB activation (p-p65/RelA): induce NF-κB activation
[2]
  periostin and TSLP expression (IF staining): promotes fibrotic activity
[2]; listed as TL1A
  periostin and TSLP expression (IF staining): upregulated
[3]
  collagen 13 and periostin protein and mRNA: promoting collagen 13 and periostin
[3]; protein alone
  proliferation of HAF (thymidine incorporation): induced proliferation
[3]; with TGF-β
  proliferation of HAF in combination with TGF-β: augmented by TGF-β
  αSMA mRNA in combination with TGF-β: enhanced TGF-β driven αSMA
Lung fibroblasts; protein alone
  periostin and collagen in lung fibroblasts: induced periostin and collagen
  proliferation of lung fibroblasts: induced proliferation
  αSMA in lung fibroblasts: not αSMA
Lung fibroblasts; with TGF-α as printed
  proliferation and αSMA together with TGF: synergized with TGF-α
Airways of naïve mice [4]
  αSMA expression in airways: upregulated
Airways of naïve mice [5]
  airway remodeling (accumulation of collagen, trichrome): promote airway remodeling
  remodeling in mice lacking T cells and ILCs: induced remodeling
Airways of naïve mice [5]; listed as TL1A
  fibrosis and remodeling after injection of the recombinant protein alone (collagen, αSMA / smooth muscle, airway hyperresponsiveness): substantial collagen deposition and αSMA accumulation; also recorded: induced a fibroproliferative syndrome
Airways of naïve mice [5]; listed as recombinant TL1A
  fibrosis and remodeling after injection of the recombinant protein alone (collagen, αSMA / smooth muscle, airway hyperresponsiveness): rapidly promotes smooth muscle alterations, collagen deposition, and airway hyperresponsiveness

B1: rLIGHT: recombinant LIGHT (TNFSF14) protein (protein)
chain: DGPAGSWEQLIQERRSHEVNPAAHLTGANSSLTGSGGPLLWETQLGLAFLRGLSYHDGALVVTKAGYYYIYSKVQLGGVGCPLGLASTITHGLYKRTPRYPEELELLVSQQSPCGRATSSSRVWWDSSFLGGVVHLEAGEKVVVRVLDERLVRLRDGTRSYFGAFMV
[1]
  induction of TSLP and periostin from keratinocytes: induce molecules from keratinocytes
[1]; via both HVEM and LTβR
  proliferation/hyperplasia of human keratinocytes: induce proliferation/hyperplasia
[2]
  periostin and TSLP expression (IF staining): upregulated
[2]; 3 days, without or with budesonide
  expression of adhesion molecules, proteinases, cytokines and chemokines (mRNA, RT-PCR), steroid sensitivity: induce expression; also recorded: promotes steroid-resistant responses
[3]
  collagen 13 and periostin protein and mRNA: the former shared with LIGHT but not the latter
[3]; protein alone
  myofibroblast differentiation (upregulation of αSMA mRNA): cannot drive myofibroblast differentiation
  proliferation of HAF (thymidine incorporation): promote proliferation
[3]; through the LTβR, siRNA knockdown
  adhesion molecules, chemokines, cytokines and metalloproteases mRNA: induced
Lung fibroblasts
  chemokines (CCL5, CCL20 CXCL5 CXCL11) in lung fibroblasts: upregulated some chemokines
Dermal fibroblasts
  TSLP, periostin and αSMA expression: upregulated TSLP, periostin, and αSMA
Skin of naïve mice; WT mice, intradermal injection, 20 μg/mouse vs PBS
  skin fibrosis and remodeling (trichrome, αSMA, TSLP staining): induces scleroderma; also recorded: induces skin fibrosis and remodeling
Skin of naïve mice; injected s.c. into mice
  cytokines and chemokines induced in vivo: induced the cytokines IL-33 and IL-25; also recorded: inducing several chemokines
Skin of naïve mice; naïve mice, subcutaneous injection
  skin disease features after subcutaneous injection: induced features of AD, scleroderma, and psoriasis
Airways of naïve mice [4]
  αSMA expression in airways: upregulated
Airways of naïve mice [5]
  airway remodeling (accumulation of collagen, trichrome): promote airway remodeling
  remodeling in mice lacking T cells and ILCs: induced remodeling
  fibrosis and remodeling after injection of the recombinant protein alone (collagen, αSMA / smooth muscle, airway hyperresponsiveness): reproduce this fibrotic activity
Airways of naïve mice [5]; listed as LIGHT
  fibrosis and remodeling after injection of the recombinant protein alone (collagen, αSMA / smooth muscle, airway hyperresponsiveness): rapidly promotes smooth muscle alterations, collagen deposition, and airway hyperresponsiveness; also recorded: substantial collagen deposition and αSMA accumulation; also recorded: increases the accumulation of collagen and alpha-SMA; also recorded: induced a fibroproliferative syndrome

— patent US20230159649A1, “METHODS AND COMBINATIONS FOR DUAL TARGETING OF TNF FAMILY MEMBERS” (La Jolla Institute for Immunology, priority 2020, published 2023)
